Laboratory results from patent EP4813396A2 (Amphivena Therapeutics, Inc., dated 2026).

How the values were obtained:
human CD33 on cells [1] = target: T1, human CD33 on cells (human, UniProt P20138 18-364); assay: cell-based or functional assay
human CD33 on cells [2] = target: T1, human CD33 on cells; assay: flow cytometry, titration on KG-1 cells
human CD33 on cells [3] = target: T1, human CD33 on cells; assay: flow cytometry, titration on HL-60 cells
human CD33 on cells [4] = target: T1, human CD33 on cells; assay: flow cytometry, titration on U-937 cells
human CD3 on T cells [5] = target: T2, human CD3 on T cells (human, UniProt P07766 23-207); assay: flow cytometry, titration on human CD3+ T cells (Jurkat per paragraph 124/paragraph 125)
T2 construct: whole, on cells; also called hu CD3; CD3 on Jurkat cells

[6] = target: cynomolgus CD33 on CHO cells (cynomolgus monkey); assay: flow cytometry; KD on CHO-cynomolgus CD33 cells divided by KD on CHO-human CD33 cells
human CD3 on T cells [7] = target: T2, human CD3 on T cells; assay: cell-based or functional assay
human CD33 on cells [8] = target: T1, human CD33 on cells; assay: flow cytometry, HL-60 cells
human CD3 on T cells [9] = target: T2, human CD3 on T cells; assay: flow cytometry, human T-cells (as headed in Table 10)

T1 sequence (P20138 18-364): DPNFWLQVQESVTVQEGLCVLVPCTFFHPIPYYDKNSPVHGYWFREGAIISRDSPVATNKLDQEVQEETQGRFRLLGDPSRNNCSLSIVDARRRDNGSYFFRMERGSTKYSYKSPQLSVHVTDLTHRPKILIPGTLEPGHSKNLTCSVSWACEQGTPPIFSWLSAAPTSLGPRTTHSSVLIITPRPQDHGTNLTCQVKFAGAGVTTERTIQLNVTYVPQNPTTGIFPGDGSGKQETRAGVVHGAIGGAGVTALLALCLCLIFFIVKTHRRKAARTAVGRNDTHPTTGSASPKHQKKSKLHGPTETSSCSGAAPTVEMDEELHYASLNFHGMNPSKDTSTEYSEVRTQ
T2 sequence (P07766 23-207): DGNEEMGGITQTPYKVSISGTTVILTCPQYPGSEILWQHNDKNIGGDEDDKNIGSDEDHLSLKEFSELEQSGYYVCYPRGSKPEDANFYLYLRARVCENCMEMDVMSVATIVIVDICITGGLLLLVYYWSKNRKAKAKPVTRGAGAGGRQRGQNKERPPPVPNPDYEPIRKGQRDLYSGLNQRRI

Row | Binder | EC50 on HL-60 [pM] (cytotoxicity) (human CD33 on cells [1]) | Kd (human CD33 on cells [2]) [nM] | Kd (human CD33 on cells [3]) [nM] | Kd (human CD33 on cells [4]) [nM] | Kd (human CD3 on T cells [5]) [nM] | KD ratio cynoCD33/ huCD33 [6] | CD25 Induction EC50 (pM) (human CD3 on T cells [7]) | CD69 Induction EC50 (pM) (human CD3 on T cells [7]) | T cell Proliferation in PBMC EC50 (pM) (human CD3 on T cells [7]) | Kd (human CD33 on cells [8]) [nM] | Kd (human CD3 on T cells [9]) [nM]
1 | CD33/CD3 tandem diabody 08 (bispecific antibody, Non-covalent homodimer; domain order 3 VL(CD33)-L1-VH(CD3)-L2-VL(CD3)-L3-VH(CD33); also called TandAb 08; tandem diabody 8) QSVLTQPPSASGTPGQRVTISCSGSRSNIGSNTVNWYQQLPGTAPKLLIYGNNQRPSGVPDRFSGSKSGSSASLAISGLQSEDEADYYCATWDDSLIGWVFGGGTKLTVLGGSGGSEVQLVESGGGLVQPGGSLRLSCAASGFTFSTYAMNWVRQAPGKGLEWVGRIRSKYNNYATYYADSVKDRFTISRDDSKNSLYLQMNSLKTEDTAVYYCARHGNFGNSYVSYFAYWGQGTLVTVSSGGSGGSDIQMTQSPSSLSASVGDRVTITCRSSTGAVTTSNYANWVQQKPGKAPKALIGGTNKRAPGVPSRFSGSLIGDKATLTISSLQPEDFATYYCALWYSNLWVFGQGTKVEIKGGSGGSQVQLVQSGAEVKKPGASVKVSCKASGYTFTSYDINWVRQAPGQGLEWMGWMNPNSGNTGFAQKFQGRVTMTRDTSTSTVYMELSSLRSEDTAVYYCARDRANTDFSYGMDVWGQGTLVTVSSAAAGSHHHHHH | 1.8 | 0.5 | 0.3 | 1.8 | 2.4 | 0.6 |  |  |  |  | 
2 | CD33/CD3 tandem diabody 10 (bispecific antibody, Non-covalent homodimer; domain order 1; also called TandAb 10) DIQMTQSPSSLSASVGDRVTITCRSSTGAVTTSNYANWVQQKPGKAPKGLIGGTNKRAPGVPSRFSGSLIGDKATLTISSLQPEDFATYYCALWYSNLWVFGQGTKVEIKGGSGGSQVQLVQSGAEVKKPGASVKVSCKASGYTFTSYDINWVRQAPGQGLEWMGWMNPNSGNTGFAQKFQGRVTMTRDTSTSTVYMELSSLRSEDTAVYYCARDRANTDYSFGMDVWGQGTLVTVSSGGSGQSVLTQPPSASGTPGQRVTISCSGSRSNIGSNTVNWYQQLPGTAPKLLIYGNNQRPSGVPDRFSGSKSGTSASLAISGLQSEDEADYYCATWDDSLIGWVFGGGTKLTVLGGSGGSEVQLVESGGGLVQPGGSLRLSCAASGFTFSTYAMNWVRQAPGKGLEWVGRIRSKYNNYATYYADSVKDRFTISRDDSKNSLYLQMNSLKTEDTAVYYCARHGNFGNSYVSWFAYWGQGTLVTVSSAAAGSHHHHHH | 7 | 1 | 0.5 | 1.7 | 1.9 | 0.8 | 10 | 6 | 6 | 0.5 | 1.9
3 | CD33/CD3 tandem diabody 03 (bispecific antibody, Non-covalent homodimer; domain order 1; also called TandAb 03; tandem diabody 3) DIQMTQSPSSLSASVGDRVTITCRSSTGAVTTSNYANWVQQKPGKAPKGLIGGTNKRAPGVPARFSGSGSGTDFTLTISSLQPEDFATYYCALWYSNLWVFGQGTKVEIKGGSGGSQVQLVQSGAEVKKPGASVKVSCKASGYTFTSYDINWVRQAPGQGLEWMGWMNPNSGNTGFAQKFQGRVTMTRDTSTSTVYMELSSLRSEDTAVYYCARDRANTDYSFGMDVWGQGTLVTVSSGGSGQSVLTQPPSASGTPGQRVTISCSGSRSNIGSNTVNWYQQLPGTAPKLLIYGNNQRPSGVPDRFSGSKSGTSASLAISGLQSEDEADYYCATWDDSLIGWVFGGGTKLTVLGGSGGSEVQLVESGGGLVQPGGSLRLSCAASGFTFSTYAMNWVRQAPGKGLEWVGRIRSKYNNYATYYADSVKDRFTISRDDSKNSLYLQMNSLKTEDTAVYYCARHGNFGNSYVSWFAYWGQGTLVTVSSAAAGSHHHHHH | 3.6 | 1.8 | 1.1 | 8.9 | 81.9 | 0.6 | 117 | 87 | 63 | 1.1 | 81.9
4 | CD33/CD3 tandem diabody 02 (bispecific antibody, Non-covalent homodimer; domain order 1; also called TandAb 02; tandem diabody 2) DIQMTQSPSSLSASVGDRVTITCRSSTGAVTTSNYANWVQQKPGKAPKGLIGGTNKRAPGVPARFSGSGSGTDFTLTISSLQPEDFATYYCALWYSNLWVFGQGTKVEIKGGSGGSQVQLVQSGAEVKKPGASVKVSCKASGYTFTSYDINWVRQAPGQGLEWMGWMNPNSGNTGFAQKFQGRVTMTRDTSTSTVYMELSSLRSEDTAVYYCARDRAVTDYYYGMDVWGQGTLVTVSSGGSGQSVLTQPPSASGTPGQRVTISCSGSRSNIGSNTVNWYQQLPGTAPKLLIYGNNQRPSGVPDRFSGSKSGTSASLAISGLQSEDEADYYCATWDDSLIGWVFGGGTKLTVLGGSGGSEVQLVESGGGLVQPGGSLRLSCAASGFTFSTYAMNWVRQAPGKGLEWVGRIRSKYNNYATYYADSVKDRFTISRDDSKNSLYLQMNSLKTEDTAVYYCARHGNFGNSYVSWFAYWGQGTLVTVSSAAAGSHHHHHH | 0.5 | 0.3 | 0.2 | 0.9 | 69.8 | 1.1 | 42 | 27 | 4 | 0.2 | 69.8
5 | CD33/CD3 tandem diabody 01 (bispecific antibody, Non-covalent homodimer; domain order 1 VL(CD3)-L1-VH(CD33)-L2-VL(CD33)-L3-VH(CD3); also called TandAb 01; tandem diabody 1) DIQMTQSPSSLSASVGDRVTITCRSSTGAVTTSNYANWVQQKPGKAPKGLIGGTNKRAPGVPARFSGSGSGTDFTLTISSLQPEDFATYYCALWYSNLWVFGQGTKVEIKGGSGGSQVQLVQSGAEVKKPGASVKVSCKASGYTFTSYDINWVRQAPGQGLEWMGWMNPNSGNTGFAQKFQGRVTMTRDTSTSTVYMELSSLRSEDTAVYYCARDRANTDFSYGMDVWGQGTLVTVSSGGSGQSVLTQPPSASGTPGQRVTISCSGSRSNIGSNTVNWYQQLPGTAPKLLIYGNNQRPSGVPDRFSGSKSGSSASLAISGLQSEDEADYYCATWDDSLIGWVFGGGTKLTVLGGSGGSEVQLVESGGGLVQPGGSLRLSCAASGFTFSTYAMNWVRQAPGKGLEWVGRIRSKYNNYATYYADSVKDRFTISRDDSKNSLYLQMNSLKTEDTAVYYCARHGNFGNSYVSWFAYWGQGTLVTVSSAAAGSHHHHHH | 1.9 | 0.9 | 0.6 | 7.1 | 94.2 | 0.7 | 92 | 91 | 89 | 0.6 | 94.2
6 | CD33/CD3 tandem diabody 04 (bispecific antibody, Non-covalent homodimer; domain order 1; also called TandAb 04; tandem diabody 4) DIQMTQSPSSLSASVGDRVTITCRSSTGAVTTSNYANWVQQKPGKAPKGLIGGTNKRAPGVPARFSGSGSGTDFTLTISSLQPEDFATYYCALWYSNLWVFGQGTKVEIKGGSGGSQVQLVQSGAEVKKPGASVKVSCKASGYTFTSYDINWVRQAPGQGLEWMGWMNPNSGNTGFAQKFQGRVTMTRDTSTSTVYMELSSLRSEDTAVYYCARDRANTDYSLGMDVWGQGTLVTVSSGGSGQSVLTQPPSASGTPGQRVTISCSGSRSNIGSNTVNWYQQLPGTAPKLLIYGNNQRPSGVPDRFSGSKSGTSASLAISGLQSEDEADYYCATWDDSLIGWVFGGGTKLTVLGGSGGSEVQLVESGGGLVQPGGSLRLSCAASGFTFSTYAMNWVRQAPGKGLEWVGRIRSKYNNYATYYADSVKDRFTISRDDSKNSLYLQMNSLKTEDTAVYYCARHGNFGNSYVSWFAYWGQGTLVTVSSAAAGSHHHHHH | 1.8 | 0.5 | 0.5 | 1.7 | 79.3 | 1.1 | 94 | 62 | 44 | 0.5 | 79.3
7 | CD33/CD3 tandem diabody 18 (bispecific antibody, Non-covalent homodimer; domain order 2 VH(CD3)-L1-VL(CD33)-L2-VH(CD33)-L3-VL(CD3); also called TandAb 18) EVQLVESGGGLVQPGGSLRLSCAASGFTFSTYAMNWVRQAPGKGLEWVGRIRSKYNNYATYYADSVKDRFTISRDDSKNSLYLQMNSLKTEDTAVYYCARHGNFGNSYVSYFAYWGQGTLVTVSSGGSGGSQSVLTQPPSVSGAPGQRVTISCTGSSSNIGAGYDVHWYQQLPGTAPKLLIYGNSNRPSGVPDRFSGSKSGTSASLAITGLQAEDEADYYCQSYDSSLSDVVFGGGTKLTVLGGSGQVQLVQSGAEVKKPGESLKISCKGSGYSFTSYWIGWVRQMPGKGLEWMGIIYPGDSDTRYSPSFQGQVTISADKSISTAYLQWSSLKASDTAMYYCARHKRGSDAFDIWGQGTTVTVSSGGSGGSDIQMTQSPSSLSASVGDRVTITCRSSTGAVTTSNYANWVQQKPGKAPKALIGGTNKRAPGVPSRFSGSLIGDKATLTISSLQPEDFATYYCALWYSNLWVFGQGTKVEIKAAAGSHHHHHH | 6.3 | 16.3 | 3.4 | 15.1 | 1.9 | 3.1 |  |  |  |  | 
